Source: patent publication US20260176378A1 (DYAX, published 2026)

biological target: T1, human plasma kallikrein (human, UniProt P03952 20-390; P03952 391-638); test: ELISA, biotinylated pKal signal over streptavidin background
T1 construct: two disulfide-linked chains; NP_000883.2; also called pKal; hpKal
T1 sequence (P03952 20-390 limits assumed, chain 1 of 2): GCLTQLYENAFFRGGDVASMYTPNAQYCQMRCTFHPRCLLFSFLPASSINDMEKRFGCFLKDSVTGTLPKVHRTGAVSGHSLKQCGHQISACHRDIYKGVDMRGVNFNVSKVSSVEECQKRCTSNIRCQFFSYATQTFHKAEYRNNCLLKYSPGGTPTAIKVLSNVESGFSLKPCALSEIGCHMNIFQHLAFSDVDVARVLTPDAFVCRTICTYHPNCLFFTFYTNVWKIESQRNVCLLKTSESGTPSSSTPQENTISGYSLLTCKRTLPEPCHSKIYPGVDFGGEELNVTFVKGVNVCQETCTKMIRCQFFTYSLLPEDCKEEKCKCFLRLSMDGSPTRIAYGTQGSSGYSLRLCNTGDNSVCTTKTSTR
T1 sequence (P03952 391-638 limits assumed, chain 2 of 2): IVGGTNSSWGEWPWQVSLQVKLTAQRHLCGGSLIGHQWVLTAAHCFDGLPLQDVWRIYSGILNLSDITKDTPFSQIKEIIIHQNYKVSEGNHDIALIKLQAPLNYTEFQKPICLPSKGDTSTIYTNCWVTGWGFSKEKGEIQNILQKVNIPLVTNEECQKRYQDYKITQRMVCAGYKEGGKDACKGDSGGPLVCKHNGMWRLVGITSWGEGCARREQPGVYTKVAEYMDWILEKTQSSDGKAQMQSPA

ELISA (T/B)	Binder
2.2	M28-C03 (Fab, V domains shown) VH: EVQLLESGGGLVQPGGSLRLSCAASGFTFSYYQMGWVRQAPGKGLEWVSSIYPSGGMTDYADSVKGRFTISRDNSKNTLYLQMNSLRAEDTAVYYCTRGSPWGDDAFDIWGQGTMVTVSS VL: DIQMTQSPSSLSASVGDRVTITCRASQSINFYLNWYQQKPGKAPKLLIYVASSLESGVPSRFSGSASGTEFTLTISSLQPEDFATYYCLQSYSAPYTFGQGTKVEIT
10.5	M27-F04 (Fab, V domains shown) VH: EVQLLESGGGLVQPGGSLRLSCAASGFTFSWYPMTWVRQAPGKGLEWVSSIGPSGGQTIYADSVKGRFTISRDNSKNTLYLQMNSLRAEDTAVYYCTTEYGDYGGGFDPWGQGTLVTVSS VL: not shown
1.5	M28-F01 (Fab, V domains shown) VH: EVQLLESGGGLVQPGGSLRLSCAASGFTFSVYLMHWVRQAPGKGLEWVSGISPSGGYTQYADSVKGRFTISRDNSKNTLYLQMNSLRAEDTAVYYCARPGGLDAFDIWGQGTMVTVSS VL: DIQMTQSPSSLSASVGDRVTITCRASQSINTYLNWYQQKPGKAPKVLIHAASTLESGVPSRFSGSGSGTDFTLTISSLQPEDFATYYCQQSYSTPPTFGQGTKVEIK
48	M12-E06 (Fab, V domains shown) VH: EVQLLESGGGLVQPGGSLRLSCAASGFTFSQYKMLWVRQAPGKGLEWVSGIGPSGGLTAYADSVKGRFTISRDNSKNTLYLQMNSLRAEDTAVYYCARAPWFGELGMDVWGQGTTVTVSS VL: DIQMTQSPSSLSASVGDRVSITCRASQSISTYLNWYQHKPGKAPTLLIYGAFSLQSGVPSRFSGSGSGTDFALTISSLQPEDFATYYCQQSHSTPPTFGQGTRVEIK
10	M27-F11 (Fab, V domains shown) VH: EVQLLESGGGLVQPGGSLRLSCAASGFTFSSYHMMWVRQAPGKGLEWVSSIYPSGGATMYADSVKGRFTISRDNSKNTLYLQMNSLRAEDTAMYYCARDGYHYGDYTYFQHWGQGTLVTVSS VL: DIQMTQSPSFLSASVGDRVTITCRASQGISSYLAWYQQKPGKAPKLLIYAASSLQSGVPSRFSGSGSGTDFTLTISSLQPEDFATYYCQQSYNTLRTFGPGTKVDLK
8.3	M12-C10 (Fab, V domains shown) VH: EVQLLESGGGLVQPGGSLRLSCAASGFTFSDYEMHWVRQAPGKGLEWVSGISPSGGKTQYADSVKGRFTISRDNSKNTLYLQMNSLRAEDTAVYYCARDLKWGGRGSPDWYFDLWGRGTLVTVSS VL: QSALTQPPSVSVSPGQTASITCSGDKLGEKYVSWYQQKPGQSPVVVIYQDNKRPSGIPERFSGSNSGNTATLTISGTQAVDEADYYCQAWDSYTVVFGGGSKLTVLG
19	M28-A01 (Fab, V domains shown) VH: EVQLLESGGGLVQPGGSLRLSCAASGFTFSWYAMHWVRQAPGKGLEWVSGIYSSGGYTKYADSVKGRFTISRDNSKNTLYLQMNSLRAEDTAVYYCARDLSNGDDVFDIWGQGTMVTVSS VL: not shown
41.6	M28-D12 (Fab, V domains shown) VH: EVQLLESGGGLVQPGGSLRLSCAASGFTFSWYTMHWVRQAPGKGLEWVSVIYPSGGPTSYADSVKGRFTISRDNSKNTLYLQMNSLRAEDTATYYCARDGSGSYLGFDYWGQGTLVTVSS VL: DIQMTQSPSSLSASVGDRVTITCRASQSIATYLNWYQQKPGRAPKLLIYAASSLQSGVPSRFVGGGSGSGTHFTLTISSLQPEDFATYYCQQSYSTRETFGQGTKVEIK
2.3	M27-B12 (Fab, V domains shown) VH: EVQLLESGGGLVQPGGSLRLSCAASGFTFSWYQMMWVRQAPGKGLEWVSSISPSGGITEYADSVKGRFTISRDNSKNTLYLQMNSLRAEDTAVYYCARDRSSGWYYYGMDVWGQGTTVTVSS VL: QYELTQPPAVSVSPGQTATITCSGDKLGDEYAAWYQQKPGQSPVLVIYQDRKRPSGIPERFSGSNFGNTATLTITGTQVMDEADYYCQAWGKRNVVFGGGTKLTVL
2.2	M27-G09 (Fab, V domains shown) VH: EVQLLESGGGLVQPGGSLRLSCAASGFTFSEYDMAWVRQAPGKGLEWVSYIVSSGGFTSYADSVKGRFTISRDNSKNTLYLQMNSLRAEDTAVYYCTTWAGWIAAADYWGQGTLVTVSS VL: DIQMTQSPSSVSASVGDRITITCRTRQSISNYLNWYQQKPGEPPKLLIFAASSLQSGVPSRFSGSGTGTEFTLTISSLQPEDLAIYYCQQSYDIPFTFGQGTKLEIK
7	M12-C09 (Fab, V domains shown) VH: EVQLLESGGGLVQPGGSLRLSCAASGFTFSSYAMVWVRQAPGKGLEWVSSIGSSGGFTLYADSVKGRFTISRDNSKNTLYLQMNSLRAEDTAVYYCASMNLGGGDAFDIWGQGTMVTVSS VL: DIQMTQSPSSLSASVGDRVTITCRASQSIGIYLNWYHQKPGKAPNLLIYGASSLQSGVPSRFSGSGSGTDFTLTISSLQPGDFATYYCQHSYSTPFTFGGGTKVEIK

Further lines, the binder ahead of its results:

Binder	ELISA (T/B)
M27-H10 (Fab, V domains shown) VH: EVQLLESGGGLVQPGGSLRLSCAASGFTFSAYQMAWVRQAPGKGLEWVSVIYSSGGYTDYADSVKGRFTISRDNSKNTLYLQMNSLRAEDTAVYYCARHNWNDGAFDIWGQGTMVTVSS VL: DIQMTQSPSSLSASVGDRVTITCRASQSISNYLNWYQQKPGKAPKFLIYAASSLQSGVPSRFSGSGSGTDFTLSISSLQPEDFATYYCQQSYSTPQTFGQGTKVEMK	12.4
M28-E01 (Fab, V domains shown) VH: EVQLLESGGGLVQPGGSLRLSCAASGFTFSSYPMGWVRQAPGKGLEWVSRISSSGGMTIYADSVKGRFTISRDNSKNTLYLQMNSLRAEDTAVYYCARDDWNVGMDVWGQGTTVTVSS VL: DIQMTQSPSSLSASVGDRVTITCRASQSISSYLNWYQQKPGKAPKLLIYAASSLQSGVPSKFSGSGSGTDYTLTISSLQPEDFATYYCQQTYTTPWTFGQGTKVEIK	41
M27-G04 (Fab, V domains shown) VH: EVQLLESGGGLVQPGGSLRLSCAASGFTFSAYYMVWVRQAPGKGLEWVSYISPSGGQTQYADSVKGRFTISRDNSKNTLYLQMNSLRAEDTAVYYCAREAISSSSFDYWGQGTLVTVSS VL: DIQMTQSPSSLSASVGDRVTITCRASQRISYYLTWYQQKPGKVPKLLIYAASSLESGVPSRFSGSGSGTDFTLTISNLQPEDFATYYCQQAFSTPFTFGGGTKVEIK	4.1
M12-B04 (Fab, V domains shown) VH: EVQLLESGGGLVQPGGSLRLSCAASGFTFSLYSMYWVRQAPGKGLEWVSRIRPSGGGTVYADSVKGRFTISRDNSKNTLYLQMNSLRAEDTAVYYCARDPLYSSGDVWGQGTTVTVSS VL: DIQMTQSPSSLSASVGDRVTITCRASQGIRNDLGWYQHKPGKAPKLLIYAASILQSGVPSRFSGTASGTDFTLTISSLQPEDFATYFCLQDYEYPLTFGGGTKLDIK	18
M28-D02 (Fab, V domains shown) VH: EVQLLESGGGLVQPGGSLRLSCAASGFTFSWYPMQWVRQAPGKGLEWVSYIYPSGGGTDYADSVKGRFTISRDNSKNTLYLQMNSLRAEDTATYYCATSSGWLGDAFDIWGQGTMVTVSS VL: DIQMTQSPSSLSASEGDMVTITCRTSRRIGTYLNWYQQKPGKAPKLLIYGASSLQSGVPSRFSGSGSGTDFTLTVSSLQPEDVGTYYCQQSFSSPWTFGPGTKVEIK	3.7
M28-E11 (Fab, V domains shown) VH: EVQLLESGGGLVQPGGSLRLSCAASGFTFSLYDMTWVRQAPGKGLEWVSGISSSGGVTIYADSVKGRFTISRDNSKNTLYLQMNSLRAEDTAVYYCARTYYYDSSGYADAFDIWGQGTMVTVSS VL: DIQMTQSPSSVSASVGDRVTINCRASQDISNWLAWYQQKPGKAPNLLIYAASSLQTGAPSRFSGSGSGTDFTLTISSLQPEDFGTYVCQQSYSLPWTFGLGTKVEVR	29.3
M12-A08 (Fab, V domains shown) VH: EVQLLESGGGLVQPGGSLRLSCAASGFTFSWYYMGWVRQAPGKGLEWVSWIVSSGGLTLYADSVKGRFTISRDNSKNTLYLQMNSLRAEDTAMYYCARTTVTTGDAFDIWGQGTMVTVSS VL: DIQMTQSPSSLSASVGDRVTITCRASQSISRYLNWYQQKPGKAPKLLIYAASTLETGVPSRFSGSGSGTDFTLTITTLQPEDFVIYYCQQSYSTPYTFGQGTKLEIK	40.4
M27-G01 (Fab, V domains shown) VH: EVQLLESGGGLVQPGGSLRLSCAASGFTFSLYRMFWVRQAPGKGLEWVSSIWSSGGPTMYADSVKGRFTISRDNSKNTLYLQMNSLRAEDTAVYYCAREYPSTYYFDYWGQGTLVTVSS VL: DIQMTQSPSSLSASVGDRVTITCRASQSISTYLNWYQQKPGKAPKLLIYGASSLQSGVPSRFSGSGSGTDFTLTISSLQPEDFTIYYCQQSYSDPYTFGQGTKLDIK	31.4
M27-E03 (Fab, V domains shown) VH: EVQLLESGGGLVQPGGSLRLSCAASGFTFSSYMMHWVRQAPGKGLEWVSGIYPSGGWTDYADSVKGRFTISRDNSKNTLYLQMNSLRAEDTATYYCARLVAGLDAFDIWGQGTMVTVSS VL: not shown	35.9
M11-G12 (Fab, V domains shown) VH: EVQLLESGGGLVQPGGSLRLSCAASGFTFSQYPMNWVRQAPGKGLEWVSSISSSGGFTTYADSVKGRFTISRDNSKNTLYLQMNSLRAEDTAVYYCAREEQQGGFDYWGQGTLVTVSS VL: DIQMTQSPSSLSAFVGDRVSITCRASQTISVYVNWYQHKSGQAPKLLIYGASSLQSGVPSRFSGSGSGTDFTLTISSLQPEDFATYFCQQSYSIPFTFGGGTDVQIR	4.9
M12-D10 (Fab, V domains shown) VH: EVQLLESGGGLVQPGGSLRLSCAASGFTFSNYPMDWVRQAPGKGLEWVSSISSSGGWTNYADSVKGRFTISRDNSKNTLYLQMNSLRAEDTAVYYCATDTSGSYLGFDYWGQGTLVTVSS VL: not shown	9.9
M27-B01 (Fab, V domains shown) VH: EVQLLESGGGLVQPGGSLRLSCAASGFTFSDYTMWWVRQAPGKGLEWVSSISSSGGITFYADSVKGRFTISRDNSKNTLYLQMNSLRAEDTAVYYCARSADTAMGGAFDIWGQGTMVTVSS VL: not shown	33.1
M27-A10 (Fab, V domains shown) VH: EVQLLESGGGLVQPGGSLRLSCAASGFTFSWYRMDWVRQAPGKGLEWVSSIWPSGGLTSYADSVKGRFTISRDNSKNTLYLQMNSLRAEDTAVYYCARGWAPGGDAFDIWGQGTMVTVSS VL: DIQMTQSPSSLSASVGDRVTITCRASQSISAYLNWYQQKPGKAPQLLMYGVGSLQSGVPSRFSGSGSGTDFTLTISSLQPEDFATYFCQQGYTTPVTFGGGTKVEIK	3.2
